The target of assay [1] is T1, hPRLR.mFc (soluble dimeric human PRLR) (Homo sapiens, UniProt P16471).
T1 construct: dimeric (hPRLR.mFc)
The assay is described as follows: Surface plasmon resonance (Biacore T200), mAb-capture format. Format: binding. Conditions: antibody-capture format, analyte hPRLR.mFc. In short, it runs like this:
(§1)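 Antibodies expressed as human IgG1 Fc variants were captured on an anti-human Fc sensor surface, then soluble PRLR protein was injected as analyte: monomeric human or cynomolgus PRLR.mmh, or dimeric human PRLR.mFc. ka and kd came from a 1:1 binding model fit.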

Assay [2] has as its target mfPRLR.mmh (monomeric macaca fascicularis PRLR). The assay is described as above. Conditions: antibody-capture format, analyte mfPRLR.mmh. Format: binding. In short, it runs like this:
as §1

In another assay the target is T2, HEK293/mPRLR (Mus musculus, UniProt Q08501).
T2 construct: HA; expressed in transfected cells; host or cells: HEK293
T2 sequence (Q08501 20-608): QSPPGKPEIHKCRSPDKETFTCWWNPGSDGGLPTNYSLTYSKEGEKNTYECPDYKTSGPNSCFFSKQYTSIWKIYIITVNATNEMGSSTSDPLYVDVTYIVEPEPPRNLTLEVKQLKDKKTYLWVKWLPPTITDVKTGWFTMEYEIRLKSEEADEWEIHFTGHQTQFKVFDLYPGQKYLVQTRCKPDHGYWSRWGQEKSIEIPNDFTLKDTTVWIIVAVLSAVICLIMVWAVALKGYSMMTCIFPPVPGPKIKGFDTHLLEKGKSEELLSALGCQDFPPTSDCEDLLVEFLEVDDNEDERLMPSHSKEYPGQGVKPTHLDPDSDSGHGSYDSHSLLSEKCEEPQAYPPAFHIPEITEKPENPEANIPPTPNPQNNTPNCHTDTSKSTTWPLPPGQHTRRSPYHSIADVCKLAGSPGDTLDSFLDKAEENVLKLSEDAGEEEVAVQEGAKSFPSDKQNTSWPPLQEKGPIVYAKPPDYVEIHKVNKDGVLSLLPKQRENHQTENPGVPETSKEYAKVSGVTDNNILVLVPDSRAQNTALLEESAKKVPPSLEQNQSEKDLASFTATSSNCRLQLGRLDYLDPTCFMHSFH
The assay is described as follows: FACS cell surface binding. In short, it runs like this:
(§2)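 HEK293 lines stably expressing HA-tagged human, cynomolgus or mouse PRLR, native-expressing T47D and parental HEK293 tested by flow cytometry. Cells (1×10^5) stained with primary antibody 30 min on ice, then PE anti-human secondary; MFI expressed as fold over isotype control.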

The subject of assay [3] is HEK293 (non-expressing parental cells). The assay is described as follows: FACS cell surface binding. In short, it runs like this:
as §2

Another assay has as its target T3, HEK293/hPRLR (Homo sapiens, UniProt P16471).
T3 construct: HA; expressed in transfected cells; host or cells: HEK293
T3 sequence (P16471 25-622): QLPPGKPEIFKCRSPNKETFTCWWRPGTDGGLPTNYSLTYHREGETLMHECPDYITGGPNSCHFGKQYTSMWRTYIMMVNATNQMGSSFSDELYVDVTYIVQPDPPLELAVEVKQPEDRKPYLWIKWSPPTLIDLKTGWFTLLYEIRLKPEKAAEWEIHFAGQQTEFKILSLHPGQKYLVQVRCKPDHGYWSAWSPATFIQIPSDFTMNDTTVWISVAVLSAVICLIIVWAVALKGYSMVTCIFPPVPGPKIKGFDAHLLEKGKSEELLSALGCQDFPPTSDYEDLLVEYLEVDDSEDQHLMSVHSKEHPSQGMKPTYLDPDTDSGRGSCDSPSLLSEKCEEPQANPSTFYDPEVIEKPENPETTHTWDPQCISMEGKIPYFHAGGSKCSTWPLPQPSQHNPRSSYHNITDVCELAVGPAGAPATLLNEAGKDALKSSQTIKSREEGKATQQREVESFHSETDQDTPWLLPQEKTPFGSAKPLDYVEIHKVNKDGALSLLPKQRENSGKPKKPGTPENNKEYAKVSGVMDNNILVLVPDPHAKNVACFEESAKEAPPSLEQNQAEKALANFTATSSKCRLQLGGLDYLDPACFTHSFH
The assay is described as follows: FACS cell surface binding. In short, it runs like this:
as §2

Assay [4] deals with T4, T47D (native PRLR expressing cell line) (Homo sapiens, UniProt P16471).
T4 construct: a native PRLR expressing cell line (T47D); endogenous in cells; host or cells: T47D
T4 sequence (P16471 25-622): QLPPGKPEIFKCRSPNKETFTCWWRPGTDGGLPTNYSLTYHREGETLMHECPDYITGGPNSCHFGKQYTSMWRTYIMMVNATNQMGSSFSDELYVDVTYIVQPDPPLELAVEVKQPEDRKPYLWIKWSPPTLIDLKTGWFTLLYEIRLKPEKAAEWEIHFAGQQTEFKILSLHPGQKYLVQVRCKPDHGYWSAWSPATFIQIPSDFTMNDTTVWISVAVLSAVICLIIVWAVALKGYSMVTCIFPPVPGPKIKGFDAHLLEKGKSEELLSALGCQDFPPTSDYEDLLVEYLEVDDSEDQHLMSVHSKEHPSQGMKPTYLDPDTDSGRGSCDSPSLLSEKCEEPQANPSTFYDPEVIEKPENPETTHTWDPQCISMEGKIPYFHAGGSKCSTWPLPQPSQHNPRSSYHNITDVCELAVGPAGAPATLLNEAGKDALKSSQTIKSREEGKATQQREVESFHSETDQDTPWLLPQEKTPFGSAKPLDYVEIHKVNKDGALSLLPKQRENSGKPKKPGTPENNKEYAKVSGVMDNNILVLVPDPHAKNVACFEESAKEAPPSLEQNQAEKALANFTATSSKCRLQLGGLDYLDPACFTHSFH
The assay is described as follows: FACS cell surface binding. In short, it runs like this: as §2

T1 sequence (P16471 with tags, fused parts or gaps): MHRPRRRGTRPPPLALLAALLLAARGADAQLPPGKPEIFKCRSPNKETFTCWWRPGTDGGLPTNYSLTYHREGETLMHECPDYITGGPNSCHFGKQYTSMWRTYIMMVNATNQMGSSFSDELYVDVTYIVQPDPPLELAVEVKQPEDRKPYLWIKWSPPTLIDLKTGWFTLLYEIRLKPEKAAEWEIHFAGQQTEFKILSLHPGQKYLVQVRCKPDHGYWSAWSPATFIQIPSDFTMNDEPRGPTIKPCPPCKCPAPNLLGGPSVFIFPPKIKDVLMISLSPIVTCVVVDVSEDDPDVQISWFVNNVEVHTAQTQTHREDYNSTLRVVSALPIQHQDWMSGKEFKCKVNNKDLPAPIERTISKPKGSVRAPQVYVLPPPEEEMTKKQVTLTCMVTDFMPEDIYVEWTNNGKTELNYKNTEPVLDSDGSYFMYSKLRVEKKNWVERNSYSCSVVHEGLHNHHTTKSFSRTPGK
mfPRLR.mmh (monomeric macaca fascicularis PRLR), sequence (as listed by the source): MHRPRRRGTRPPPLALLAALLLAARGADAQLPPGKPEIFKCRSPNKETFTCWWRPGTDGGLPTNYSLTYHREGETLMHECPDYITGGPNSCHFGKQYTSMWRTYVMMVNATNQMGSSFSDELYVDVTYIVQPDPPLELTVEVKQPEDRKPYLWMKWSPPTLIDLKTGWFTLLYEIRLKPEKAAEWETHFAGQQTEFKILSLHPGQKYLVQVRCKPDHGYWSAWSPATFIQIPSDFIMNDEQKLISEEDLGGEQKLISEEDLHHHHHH

B1: H1H6795P: anti-PRLR antibody, human IgG1 Fc; HCVR/LCVR SEQ ID NOs 162/170 (antibody, V domains shown)
VH: QVQLVQSGAEVKKPGASVKVSCKASGYTFGTSGITWVRQAPGQGLEWMGWSSAYNGKTDYAQKFQDRVTMTTDTSTTTGYMEMRSLTSDDTAVYYCTTVVRRPFDFWGQGTLVTVSS
VL: DIQMTQSPSSLSASVGDRVTITCRASQDINNFLAWFQQKPGKAPKSLIYAASSLQSGVPSKFSGGGSGTDFALTISSLQPEDFATYYCQQYSSYPITFGQGTRLEIK
modifications: human IgG1 Fc
On to B1, for which the Kd (commonly the free concentration of one partner at which half of the binding sites on the other are occupied at equilibrium, for simple one-to-one binding) is 54.5 pM in assay [1] (25° C.), 40.2 pM in assay [1] (37° C.), 2330 pM in assay [2] (25° C.) and 6160 pM in assay [2] (37° C.). Further, the T½ in assay [1] (25° C.) came out at 137 min; in assay [1] (37° C.), 149 min; in assay [2] (25° C.), 6 min; in assay [2] (37° C.) it was 2 min. Besides, the “FACS Cell Binding (Fold Above Background)” value came out at 1 Fold Above Background with HEK293/mPRLR, 1 Fold Above Background in assay [3], 1 Fold Above Background in the assay with HEK293/hPRLR and 34 Fold Above Background in assay [4].

B2: H1H6801P: anti-PRLR antibody, human IgG1 Fc; HCVR/LCVR SEQ ID NOs 210/218 (antibody, V domains shown)
VH: QVQLQQSGPGLVKPSQTLSLTCVISGDSVSSNTAWNWVRQSPSRGLEWLGRTYYRSKWYNDYAVSVKSRITINPDTSKNQFSLLMNSVTPEDTAVYYCARVVRGLNYFDYWGQGTLVTVSS
VL: DIVMTQSPDSLAVSLGERATINCKSSQSVLYNSNNKNYLAWYQQKPGQPPKLLIYWSSSRESGVPDRFSGSGSGTDFTLTISGLQAEDVAIYYCQQYSTIPYTFGQGTKLEIK
modifications: human IgG1 Fc
For B2, the Kd in assay [1] (25° C.) worked out at 161 pM; in assay [1] (37° C.), 279 pM; in assay [2] (25° C.) it was 1880 pM; in assay [2] (37° C.), 10800 pM. The T½ in assay [1] (25° C.) was 106 min; in assay [1] (37° C.) it was 52 min; in assay [2] (25° C.) it was 9 min; in assay [2] (37° C.) it was 1 min. For the same molecule, the “FACS Cell Binding (Fold Above Background)” value in the assay with HEK293/mPRLR was 56 Fold Above Background; in assay [3] it was 7 Fold Above Background; with HEK293/hPRLR, 47 Fold Above Background; in assay [4], 45 Fold Above Background.

B3: H1H6793P: anti-PRLR antibody, human IgG1 Fc; HCVR/LCVR SEQ ID NOs 146/154 (antibody, V domains shown)
VH: EVQLVESGGGLVQPGGSLRLSCAASGFSFSIYAMSWFRQAPGKGLEWVSAINGRGDGTHYADSVKGRFTISRDNSKTTLYLQMSSLRAEDTAVYYCAKPVMSTNGFDIWGQGTMVTVSS
VL: DIQMTQSPSTLSASVGDRVTITCRASQSISSWLAWYQLKPGKAPKLLIYKASNLESGVPSRFSGSGSGTEFTLTISSLQPDDFATYYCQQYNIYWTFGQGTKVEIK
modifications: human IgG1 Fc
On to B3, for which the Kd in assay [1] (25° C.) was found to be 331 pM; in assay [1] (37° C.), 347 pM; in assay [2] (25° C.), 2220 pM; in assay [2] (37° C.), 4590 pM. Besides, the T½ in assay [1] (25° C.) is listed as 153 min; in assay [1] (37° C.), 81 min; in assay [2] (25° C.), 29 min; in assay [2] (37° C.), 11 min. The “FACS Cell Binding (Fold Above Background)” value amounted to 2 Fold Above Background with HEK293/mPRLR, 2 Fold Above Background in assay [3], 2 Fold Above Background with HEK293/hPRLR and 43 Fold Above Background in assay [4].

B4: H1H6800P: anti-PRLR antibody, human IgG1 Fc; HCVR/LCVR SEQ ID NOs 194/202 (antibody, V domains shown)
VH: EVQLVESGGGLVQPGRSLRLSCAASGFTFDGYAMHWVRQGPGKGLEWVSGISWYSDTLGYADSVKGRFTISRDNAKNSLYLQMNSLRTEDTAFYYCAKISSSGWAFDYWGQGTLVTVSS
VL: EIVLTQSPGTLSLSPGERATLSCRASHSVSSAYLAWYQQKPGQTPRLLIYGTSSRATGIPDRFSGSGSGTDFTLTISRLEPEDFAVYYCQQYGSSPLFTFGPGTKVDIK
modifications: human IgG1 Fc
For the molecule B4, the Kd in assay [1] (25° C.) was found to be 184 pM; in assay [1] (37° C.), 229 pM; in assay [2] (25° C.) it was 1250 pM; in assay [2] (37° C.), 2480 pM. The T½ in assay [1] (25° C.) is given as 133 min; in assay [1] (37° C.), 79 min; in assay [2] (25° C.), 30 min; in assay [2] (37° C.), 11 min. The “FACS Cell Binding (Fold Above Background)” value is 1 Fold Above Background with HEK293/mPRLR, 1 Fold Above Background in assay [3], 35 Fold Above Background in the assay with HEK293/hPRLR and 41 Fold Above Background in assay [4].

B5: H1H6803P: anti-PRLR antibody, human IgG1 Fc; HCVR/LCVR SEQ ID NOs 226/234 (antibody, V domains shown)
VH: EVQLVESGGGVVRPGGSLRLSCAASGFKFDDYGMTWVRHVPGKGLEWVSGINWNGGRTGYTDSVKGRFTISRDNAKNSLYLQMNSLRAEDTALYHCAGARRDAFDIWGQGTMVTVSS
VL: DIQMTQSPSSLSASIGDRVTITCRASQNIIKYLNWYQQNAGKAPKLLIYTASSLQSGVPSRFSGSGSGTDFTLTISSLQPEDFATYYCQQSSSSPYTFGQGTKLEIK
modifications: human IgG1 Fc
With B5, the Kd in assay [1] (25° C.) is 607 pM; in assay [1] (37° C.), 461 pM; in assay [2] (25° C.), 3370 pM; in assay [2] (37° C.) it was 7280 pM. In addition, the T½ in assay [1] (25° C.) is reported as 184 min; in assay [1] (37° C.), 186 min; in assay [2] (25° C.), 55 min; in assay [2] (37° C.), 18 min. For the same molecule, the “FACS Cell Binding (Fold Above Background)” value with HEK293/mPRLR stood at 1 Fold Above Background; in assay [3] it was 1 Fold Above Background; with HEK293/hPRLR, 39 Fold Above Background; in assay [4] it was 39 Fold Above Background.

B6: H1H6797P: anti-PRLR antibody, human IgG1 Fc; HCVR/LCVR SEQ ID NOs 178/186 (antibody, V domains shown)
VH: EVQLVESGGGLVQPGGSLRLSCIVSGFTFSGSWMSWVRQLPGKGLEWVANIKEDGSDSYYVDSVEGRFTISRDNAKSSLYLQMNSLRVDDTAVYFCARARTVPLHYWGQGTLVTVSS
VL: DIQMTQSPSTLSASVGDRVTITCRASQSINIWLAWYQQKPGKAPKLLIYRASYLESGVPSSFAGGGSGTEFTLTISSLQPDDFGTYYCQHYNSYPFTFGQGTKLEIK
modifications: human IgG1 Fc
For the molecule B6, the Kd in assay [1] (25° C.) was determined as 122 pM; in assay [1] (37° C.), 69.1 pM; in assay [2] (25° C.) it was 3120 pM; in assay [2] (37° C.), 9900 pM. Moreover, the T½ in assay [1] (25° C.) amounted to 97 min; in assay [1] (37° C.) it was 93 min; in assay [2] (25° C.), 6 min; in assay [2] (37° C.), 1 min. Further, the “FACS Cell Binding (Fold Above Background)” value in the assay with HEK293/mPRLR is reported as 2 Fold Above Background; in assay [3] it was 1 Fold Above Background; in the assay with HEK293/hPRLR it was 1 Fold Above Background; in assay [4] it was 38 Fold Above Background.

For the origin of these results see patent US9688764B2, “Methods of treating breast cancer by administering anti-human prolactin receptor (PRLR) antibodies” (REGENERON PHARMACEUTICALS, INC., priority 2013, dated 2017).
